Sequences and labels used below:
B1: HDV Ribozyme (parent)
chain: GGCCGGCAUGGUCCCAGCCUCCUCGCUGGCGCCGGCUGGGCAACAUUCCGAGGGGACCGUCCCCUCGGUAAUGGCGAAUGGGACCCA

Variants of B1 are the subject of this data set. Put plainly: self-cleavage, relative activity (ratio to wild type); higher = more cleavage; co-transcriptional.
For the variant GGCCGGCAUGGUCCCAGCCUCCUCGCUGGCGCCGGCUGUGCAACAUCCCGAGGGGACCGUCCCCUCGGUAAUGGCGAAUGGGACCCA [G39U U47C], the self-cleavage was determined as 0.393. With GGCCGGCAUGGUCCCAGCCUCCUCGCUGGCGCCGGCUGGCGAACAUUCCGAGGGGACCGUCCCCUCGGUAAUGGCGAAUGGGACCCA [G40C C41G], the self-cleavage was determined as 0.222. For the variant GGCCGGCAUGGUCCCAGCCUCCUCGCUGGCGCCGGCUGGACAACAUUCCGAGGGGACCGUCCCCUCGUUAAUGGCGAAUGGGACCCA [G40A G68U], the self-cleavage worked out at 0.997.

Regarding GGCCGGCAUGGUCCCAGCCUCCUCGCUGGCGCCGGCUGGACAACAUUCCGAGGGGACCGUCCCCUCGAUAAUGGCGAAUGGGACCCA [G40A G68A], the self-cleavage came to 1.01.

For the variant GGCCGGCAUGGUCCCAGCCUCCUCGCUGGCGCCGGCUGUGCAACAUUCCGAGGGGACCGUCCCCUCGGUAAUGGCUAAUGGGACCCA [G39U G76U], the self-cleavage amounted to 0.819. On to GGCCGGCAUGGUCCCAGCCUCCUCGCUGGCGCCGGCUGGACAACAUUCCGCGGGGACCGUCCCCUCGGUAAUGGCGAAUGGGACCCA [G40A A51C], for which the self-cleavage was 0.984.

On to GGCCGGCAUGGUCCCAGCCUCCUCGCUGGCGCCGGCUGGACAACAUUCCGAGGGGUCCGUCCCCUCGGUAAUGGCGAAUGGGACCCA [G40A A56U], for which the self-cleavage worked out at 1.02. The figure for GGCCGGCAUGGUCCCAGCCUCCUCGCUGGCGCCGGCUGGACAACAUUCCGAGGGGACCGUCCCCCCGGUAAUGGCGAAUGGGACCCA [G40A U65C] is 1.12. In the case of GGCCGGCAUGGUCCCAGCCUCCUCGCUGGCGCCGGCUGGACAACAUUCCGAGGGGACCGUCCCCGCGGUAAUGGCGAAUGGGACCCA [G40A U65G] it was 0.601; in that of GGCCGGCAUGGUCCCAGCCUCCUCGCUGGCGCCGGCUGGCCAACAUUCCGGGGGGACCGUCCCCUCGGUAAUGGCGAAUGGGACCCA [G40C A51G], 0.288; in that of GGCCGGCAUGGUCCCAGCCUCCUCGCUGGCGCCGGCUGGACAACAUUCCGAGGGGACCGUCCCCUCGGUAAUGGCGAAUGGGACCCC [G40A A87C], 0.981. In the case of GGCCGGCAUGGUCCCAGCCUCCUCGCUGGCGCCGGCUGUGCAACAUUCCGAGGGGACCGUCCCCUCGGUAAUUGCGAAUGGGACCCA [G39U G73U] it was 0.211; in that of GGCCGGCAUGGUCCCAGCCUCCUCGCUGGCGCCGGCUGUGCAACAUUCCGAGGGGACCGUCCCCUCGGUAAUGGCGAAUCGGACCCA [G39U G80C], 0.181; in that of GGCCGGCAUGGUCCCAGCCUCCUCGCUGGCGCCGGCUGUUCAACAUUCCGAGGGGACCGUCCCCUCGGUAAUGGCGAAUGGGACCCA [G39U G40U], 0.451.

Turning to GGCCGGCAUGGUCCCAGCCUCCUCGCUGGCGCCGGCUGUGCAACAUUCCGACGGGACCGUCCCCUCGGUAAUGGCGAAUGGGACCCA [G39U G52C], the self-cleavage amounted to 0.831. GGCCGGCAUGGUCCCAGCCUCCUCGCUGGCGCCGGCUGGCCAACAUUCCGAGGGGACCGUCCCCUCGGUAAUGGCGAUUGGGACCCA [G40C A78U]: the self-cleavage turned out to be 0.122. In the case of GGCCGGCAUGGUCCCAGCCUCCUCGCUGGCGCCGGCUGGCCAACAUUCCGAGGGGACCGUCCCCUCGGUAAUGGCGAGUGGGACCCA [G40C A78G] it was 0.318; in that of GGCCGGCAUGGUCCCAGCCUCCUCGCUGGCGCCGGCUGGACAACAUUCCGAGGGGACCGGCCCCUCGGUAAUGGCGAAUGGGACCCA [G40A U60G], 0.916. In the case of GGCCGGCAUGGUCCCAGCCUCCUCGCUGGCGCCGGCUGGACAACAUUCCGAGUGGACCGUCCCCUCGGUAAUGGCGAAUGGGACCCA [G40A G53U] it was 0.823; in that of GGCCGGCAUGGUCCCAGCCUCCUCGCUGGCGCCGGCUGGACAACAUUCCGAGGGGACCGUCCCCUCGGUAAUGGCGCAUGGGACCCA [G40A A77C], 0.427.

For the variant GGCCGGCAUGGUCCCAGCCUCCUCGCUGGCGCCGGCUGGACAACAUUCCGAGGGGACCGUCCCCUCGGUAAUGGAGAAUGGGACCCA [G40A C75A], the self-cleavage was 0.0831. For GGCCGGCAUGGUCCCAGCCUCCUCGCUGGCGCCGGCUGGACAACAUUCCGAGGGGACCGUCCCCUCGGUAAUGGGGAAUGGGACCCA [G40A C75G], the self-cleavage was 0.305. In the case of GGCCGGCAUGGUCCCAGCCUCCUCGCUGGCGCCGGCUGGACAACAUUCCGAGGGGACCGUUCCCUCGGUAAUGGCGAAUGGGACCCA [G40A C61U] it was 0.765; in that of GGCCGGCAUGGUCCCAGCCUCCUCGCUGGCGCCGGCUGGACAACAUUCCGAGGGGACCGUACCCUCGGUAAUGGCGAAUGGGACCCA [G40A C61A], 0.839.

Turning to GGCCGGCAUGGUCCCAGCCUCCUCGCUGGCGCCGGCUGGACAACAUUCCGAGGGGACCGUCCCCUCGGUAAUGGCGACUGGGACCCA [G40A A78C], the self-cleavage turned out to be 0.233. In the case of GGCCGGCAUGGUCCCAGCCUCCUCGCUGGCGCCGGCUGGCCCACAUUCCGAGGGGACCGUCCCCUCGGUAAUGGCGAAUGGGACCCA [G40C A42C] it was 0.111; in that of GGCCGGCAUGGUCCCAGCCUCCUCGCUGGCGCCGGCUGGCCUACAUUCCGAGGGGACCGUCCCCUCGGUAAUGGCGAAUGGGACCCA [G40C A42U], 0.151. For the variant GGCCGGCAUGGUCCCAGCCUCCUCGCUGGCGCCGGCUGGACAACAUUCCGAGGGGACCGUCCCCUCGGUAAAGGCGAAUGGGACCCA [G40A U72A], the self-cleavage stood at 0.446. The figure for GGCCGGCAUGGUCCCAGCCUCCUCGCUGGCGCCGGCUGGACAACAUUCCGAGGGGACCGUCCCCUCGGUCAUGGCGAAUGGGACCCA [G40A A70C] is 0.849; for GGCCGGCAUGGUCCCAGCCUCCUCGCUGGCGCCGGCUGGACUACAUUCCGAGGGGACCGUCCCCUCGGUAAUGGCGAAUGGGACCCA [G40A A42U] it is 0.802; for GGCCGGCAUGGUCCCAGCCUCCUCGCUGGCGCCGGCUGGACAACAUUCCGAGGGGACCGUCCCCUCGGUAAUGACGAAUGGGACCCA [G40A G74A] it is 0.726.

In the case of GGCCGGCAUGGUCCCAGCCUCCUCGCUGGCGCCGGCUGGACAACAUUCCGAGGGGACCGUCCCCUCGGUAAUGGCGAAUGAGACCCA [G40A G81A], the self-cleavage was found to be 0.475.

Values taken from the RNAGym collection of RNA variant scans (doi:10.7554/elife.80360).
